The record followed here is patent US20260248892A1 (Sanofi, published 2026).

Test in all cases: cell-based or functional assay
One experiment addresses Rat IR (rat, UniProt P15127 27-1383).
A further experiment addresses Pig IR (pig, UniProt F1SCL0 28-1382).
For experiment [1], the target named is human insulin receptor isoform B (human, UniProt P06213 28-1382).
For experiment [2], the target named is human insulin receptor isoform A (human, UniProt P06213-2 28-1370).

Chain of Rat IR (P15127 27-1383): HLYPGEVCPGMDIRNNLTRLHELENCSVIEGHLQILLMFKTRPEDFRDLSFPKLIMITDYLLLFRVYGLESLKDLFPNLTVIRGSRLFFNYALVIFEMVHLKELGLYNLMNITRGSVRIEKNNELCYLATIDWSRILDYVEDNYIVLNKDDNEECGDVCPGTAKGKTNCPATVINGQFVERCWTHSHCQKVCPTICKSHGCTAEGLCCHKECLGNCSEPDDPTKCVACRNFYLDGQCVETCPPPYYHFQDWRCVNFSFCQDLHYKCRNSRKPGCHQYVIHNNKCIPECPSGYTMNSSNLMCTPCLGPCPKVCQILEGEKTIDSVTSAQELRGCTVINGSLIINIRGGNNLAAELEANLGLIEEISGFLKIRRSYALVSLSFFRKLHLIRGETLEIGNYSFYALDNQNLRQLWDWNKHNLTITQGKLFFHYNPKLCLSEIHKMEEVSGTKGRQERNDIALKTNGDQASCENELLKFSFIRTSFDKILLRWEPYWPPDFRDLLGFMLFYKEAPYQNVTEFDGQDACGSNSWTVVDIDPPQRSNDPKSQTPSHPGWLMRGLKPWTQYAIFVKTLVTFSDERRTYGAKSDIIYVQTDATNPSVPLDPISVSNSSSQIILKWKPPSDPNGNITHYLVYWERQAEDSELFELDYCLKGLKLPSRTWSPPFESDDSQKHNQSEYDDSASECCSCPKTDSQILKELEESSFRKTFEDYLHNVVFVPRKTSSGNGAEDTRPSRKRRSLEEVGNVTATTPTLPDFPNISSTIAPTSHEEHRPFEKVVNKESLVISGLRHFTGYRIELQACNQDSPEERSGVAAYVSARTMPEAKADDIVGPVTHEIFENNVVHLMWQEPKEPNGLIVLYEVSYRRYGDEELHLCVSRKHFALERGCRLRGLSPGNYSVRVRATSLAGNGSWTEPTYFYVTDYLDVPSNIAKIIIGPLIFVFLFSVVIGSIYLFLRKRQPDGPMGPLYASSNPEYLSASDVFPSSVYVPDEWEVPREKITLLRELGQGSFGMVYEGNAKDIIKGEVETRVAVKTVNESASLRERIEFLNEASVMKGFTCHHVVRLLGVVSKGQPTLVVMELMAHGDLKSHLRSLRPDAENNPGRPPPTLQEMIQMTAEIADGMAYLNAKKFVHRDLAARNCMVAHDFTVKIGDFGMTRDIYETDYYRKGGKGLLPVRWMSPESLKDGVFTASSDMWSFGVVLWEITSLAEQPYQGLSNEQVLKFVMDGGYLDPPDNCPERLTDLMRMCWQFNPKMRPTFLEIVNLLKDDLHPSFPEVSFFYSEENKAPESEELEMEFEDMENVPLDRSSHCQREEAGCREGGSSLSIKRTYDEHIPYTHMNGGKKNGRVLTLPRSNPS

B1: scl-Fc fusion protein INS012 (Fc fusion)
chain: FVNQHLCGSHLVEALHLVCGERGFHYTPKTEEYPGDVGIVEQCCTSICSLSQLEDYCGGEAEDLQVGQVELGGGPGAGSLQPEGSLQGGPSVFLFPPKPKDTLMISRTPEVTCVVVDVSHEDPEVKFNWYVDGVEVHNAKTKPREEQYNSTYRVVSVLTVLHQDWLNGKEYKCKVSNKALPAPIEKTISKAKGQPREPQVYTLPPSRDELTKNQVSLTCLVKGFYPSDIAVEWESNGQPENNYKTTPPVLDSDGSFFLYSKLTVDKSRWQQGNVFSCSVMHEALHNHYTQKSLSLSPGGGGGSAESKYGPPCPPCPA
With B1, the “Rat IR phosphorylation [EC50 nM] mean” value in the experiment with Rat IR was 124 nM. Moreover, the “Pig IR phosphorylation [EC 50 nM] mean” value with Pig IR was found to be 50.6 nM. Moreover, in experiment [1], the “hIR-B-phosphorylation [EC50 nM] mean” value is 178 nM. For the same molecule, the “hIR-A phosphorylation [EC50 nM] mean” value in experiment [2] is 466 nM.

B2: scl-Fc fusion protein INS013 (Fc fusion)
chain: FVNQHLCGSHLVEALHLVCGERGFHYTPKTGSYPGGVGIVEQCCTSICSLSQLEDYCGGEAEDLQVGQVELGGGPGAGSLQPEGSLQGGPSVFLFPPKPKDTLMISRTPEVTCVVVDVSHEDPEVKFNWYVDGVEVHNAKTKPREEQYNSTYRVVSVLTVLHQDWLNGKEYKCKVSNKALPAPIEKTISKAKGQPREPQVYTLPPSRDELTKNQVSLTCLVKGFYPSDIAVEWESNGQPENNYKTTPPVLDSDGSFFLYSKLTVDKSRWQQGNVFSCSVMHEALHNHYTQKSLSLSPGGGGGSAESKYGPPCPPCPA
Take B2: the “Rat IR phosphorylation [EC50 nM] mean” value with Rat IR is 23.6 nM. Moreover, in the experiment with Pig IR, the “Pig IR phosphorylation [EC 50 nM] mean” value was 4.17 nM. Also, in experiment [1], the “hIR-B-phosphorylation [EC50 nM] mean” value was found to be 57.2 nM. In addition, the “hIR-A phosphorylation [EC50 nM] mean” value in experiment [2] came out at 5.58 nM.

B3: scl-Fc fusion protein INS002 (Fc fusion)
chain: FVNQHLCGSHLVEALYLVCGERGFFYTDKTEEYPGDVGIVEQCCTSICSLEQLENYCGGEAEDLQVGQVELGGGPGAGSLQPLALEGSLQGGPSVFLFPPKPKDTLMISRTPEVTCVVVDVSHEDPEVKFNWYVDGVEVHNAKTKPREEQYNSTYRVVSVLTVLHQDWLNGKEYKCKVSNKALPAPIEKTISKAKGQPREPQVYTLPPSRDELTKNQVSLTCLVKGFYPSDIAVEWESNGQPENNYKTTPPVLDSDGSFFLYSKLTVDKSRWQQGNVFSCSVMHEALHNHYTQKSLSLSPGGGGGSAESKYGPPCPPCPA
Turning to B3, in the experiment with Rat IR, the “Rat IR phosphorylation [EC50 nM] mean” value was determined as 32.1 nM. Besides, the “Pig IR phosphorylation [EC 50 nM] mean” value in the experiment with Pig IR came to 8.12 nM. In addition, in experiment [1], the “hIR-B-phosphorylation [EC50 nM] mean” value was 22.8 nM. Moreover, in experiment [2], the “hIR-A phosphorylation [EC50 nM] mean” value is 36 nM.

B4: scl-Fc fusion protein INS005 (Fc fusion)
chain: SFVNQHLCGSHLVEALHLVCGERGFAYTDKTEEYPGDVGIVEQCCTSICSLEQLENYCGGEAEDLQVGQVELGGGPGAGSLQPEGSLQGGPSVFLFPPKPKDTLMISRTPEVTCVVVDVSHEDPEVKFNWYVDGVEVHNAKTKPREEQYNSTYRVVSVLTVLHQDWLNGKEYKCKVSNKALPAPIEKTISKAKGQPREPQVYTLPPSRDELTKNQVSLTCLVKGFYPSDIAVEWESNGQPENNYKTTPPVLDSDGSFFLYSKLTVDKSRWQQGNVFSCSVMHEALHNHYTQKSLSLSPGGGGGSAESKYGPPCPPCPA
Take B4: the “Rat IR phosphorylation [EC50 nM] mean” value with Rat IR worked out at 1570 nM. Further, the “Pig IR phosphorylation [EC 50 nM] mean” value with Pig IR is 61.4 nM. Besides, the “hIR-B-phosphorylation [EC50 nM] mean” value in experiment [1] amounted to 522 nM. For the same molecule, the “hIR-A phosphorylation [EC50 nM] mean” value in experiment [2] came out at 1510 nM.

B5: scl-Fc fusion protein INS006 (Fc fusion)
chain: SFVNQHLCGSHLVEALELVCGERGFHYTDKTEEYPGDVGIVEQCCTSICSLEQLENYCGGEAEDLQVGQVELGGGPGAGSLQPEGSLQGGPSVFLFPPKPKDTLMISRTPEVTCVVVDVSHEDPEVKFNWYVDGVEVHNAKTKPREEQYNSTYRVVSVLTVLHQDWLNGKEYKCKVSNKALPAPIEKTISKAKGQPREPQVYTLPPSRDELTKNQVSLTCLVKGFYPSDIAVEWESNGQPENNYKTTPPVLDSDGSFFLYSKLTVDKSRWQQGNVFSCSVMHEALHNHYTQKSLSLSPGGGGGSAESKYGPPCPPCPA
Regarding B5, the “Rat IR phosphorylation [EC50 nM] mean” value in the experiment with Rat IR was found to be 286 nM. Further, the “Pig IR phosphorylation [EC 50 nM] mean” value with Pig IR stood at 52.5 nM. Further, the “hIR-B-phosphorylation [EC50 nM] mean” value in experiment [1] amounted to 388 nM. Moreover, in experiment [2], the “hIR-A phosphorylation [EC50 nM] mean” value was determined as 1110 nM.

B6: scl-Fc fusion protein INS015 (Fc fusion)
chain: SFVNQHLCGSHLVEALHLVCGERGFHYTPKTEEYPGDVGIVEQCCTSICSLSQLENYCGGEAEDLQVGQVELGGGPGAGSLQPEGSLQGGPSVFLFPPKPKDTLMISRTPEVTCVVVDVSHEDPEVKFNWYVDGVEVHNAKTKPREEQYNSTYRVVSVLTVLHQDWLNGKEYKCKVSNKALPAPIEKTISKAKGQPREPQVYTLPPSRDELTKNQVSLTCLVKGFYPSDIAVEWESNGQPENNYKTTPPVLDSDGSFFLYSKLTVDKSRWQQGNVFSCSVMHEALHNHYTQKSLSLSPGGGGGSAESKYGPPCPPCPA
For B6, in the experiment with Rat IR, the “Rat IR phosphorylation [EC50 nM] mean” value turned out to be 95.7 nM. In addition, in the experiment with Pig IR, the “Pig IR phosphorylation [EC 50 nM] mean” value came out at 33.5 nM. Moreover, in experiment [1], the “hIR-B-phosphorylation [EC50 nM] mean” value was 56.3 nM. In addition, the “hIR-A phosphorylation [EC50 nM] mean” value in experiment [2] was found to be 211 nM.

B7: scl-Fc fusion protein INS011 (Fc fusion)
chain: SFVNQHLCGSHLVEALHLVCGERGFAYTPKTGSYPGGVGIVEQCCTSICSLEQLENYCGGEAEDLQVGQVELGGGPGAGSLQPEGSLQGGPSVFLFPPKPKDTLMISRTPEVTCVVVDVSHEDPEVKFNWYVDGVEVHNAKTKPREEQYNSTYRVVSVLTVLHQDWLNGKEYKCKVSNKALPAPIEKTISKAKGQPREPQVYTLPPSRDELTKNQVSLTCLVKGFYPSDIAVEWESNGQPENNYKTTPPVLDSDGSFFLYSKLTVDKSRWQQGNVFSCSVMHEALHNHYTQKSLSLSPGGGGGSAESKYGPPCPPCPA
Take B7: the “Rat IR phosphorylation [EC50 nM] mean” value with Rat IR was 169 nM. The “Pig IR phosphorylation [EC 50 nM] mean” value in the experiment with Pig IR was determined as 39.6 nM. In experiment [1], the “hIR-B-phosphorylation [EC50 nM] mean” value was 110 nM. Further, the “hIR-A phosphorylation [EC50 nM] mean” value in experiment [2] worked out at 414 nM.

B8: scl-Fc fusion protein INS008 (Fc fusion)
chain: SFVNQHLCGSHLVEALELVCGERGFHYTDKTGSYPGGVGIVEQCCTSICSLEQLENYCGGEAEDLQVGQVELGGGPGAGSLQPEGSLQGGPSVFLFPPKPKDTLMISRTPEVTCVVVDVSHEDPEVKFNWYVDGVEVHNAKTKPREEQYNSTYRVVSVLTVLHQDWLNGKEYKCKVSNKALPAPIEKTISKAKGQPREPQVYTLPPSRDELTKNQVSLTCLVKGFYPSDIAVEWESNGQPENNYKTTPPVLDSDGSFFLYSKLTVDKSRWQQGNVFSCSVMHEALHNHYTQKSLSLSPGGGGGSAESKYGPPCPPCPA
Turning to B8, the “Rat IR phosphorylation [EC50 nM] mean” value in the experiment with Rat IR worked out at 440 nM. Besides, in the experiment with Pig IR, the “Pig IR phosphorylation [EC 50 nM] mean” value stood at 21.2 nM. Besides, the “hIR-B-phosphorylation [EC50 nM] mean” value in experiment [1] was 90 nM. Also, in experiment [2], the “hIR-A phosphorylation [EC50 nM] mean” value is 1410 nM.

B9: scl-Fc fusion protein INS010 (Fc fusion)
chain: SFVNQHLCGSHLVEALHLVCGERGFAYTPKTEEYPGDVGIVEQCCTSICSLEQLENYCGGEAEDLQVGQVELGGGPGAGSLQPEGSLQGGPSVFLFPPKPKDTLMISRTPEVTCVVVDVSHEDPEVKFNWYVDGVEVHNAKTKPREEQYNSTYRVVSVLTVLHQDWLNGKEYKCKVSNKALPAPIEKTISKAKGQPREPQVYTLPPSRDELTKNQVSLTCLVKGFYPSDIAVEWESNGQPENNYKTTPPVLDSDGSFFLYSKLTVDKSRWQQGNVFSCSVMHEALHNHYTQKSLSLSPGGGGGSAESKYGPPCPPCPA
Take B9: the “Rat IR phosphorylation [EC50 nM] mean” value in the experiment with Rat IR worked out at 390 nM. The “Pig IR phosphorylation [EC 50 nM] mean” value with Pig IR was found to be 23.5 nM. Moreover, the “hIR-B-phosphorylation [EC50 nM] mean” value in experiment [1] is 501 nM. In experiment [2], the “hIR-A phosphorylation [EC50 nM] mean” value is 1780 nM.

B10: scl-Fc fusion protein INS007 (Fc fusion)
chain: SFVNQHLCGSHLVEALHLVCGERGFAYTDKTGSYPGGVGIVEQCCTSICSLEQLENYCGGEAEDLQVGQVELGGGPGAGSLQPEGSLQGGPSVFLFPPKPKDTLMISRTPEVTCVVVDVSHEDPEVKFNWYVDGVEVHNAKTKPREEQYNSTYRVVSVLTVLHQDWLNGKEYKCKVSNKALPAPIEKTISKAKGQPREPQVYTLPPSRDELTKNQVSLTCLVKGFYPSDIAVEWESNGQPENNYKTTPPVLDSDGSFFLYSKLTVDKSRWQQGNVFSCSVMHEALHNHYTQKSLSLSPGGGGGSAESKYGPPCPPCPA
On to B10, for which the “Rat IR phosphorylation [EC50 nM] mean” value in the experiment with Rat IR is 54.8 nM. Further, in the experiment with Pig IR, the “Pig IR phosphorylation [EC 50 nM] mean” value was determined as 10.8 nM. In experiment [1], the “hIR-B-phosphorylation [EC50 nM] mean” value is 57.3 nM. Moreover, the “hIR-A phosphorylation [EC50 nM] mean” value in experiment [2] was 82.5 nM.

B11: scl-Fc fusion protein INS014 (Fc fusion)
chain: SFVNQHLCGSHLVEALHLVCGERGFHYTPKTGSYPGGVGIVEQCCTSICSLSQLEDYCGGEAEDLQVGQVELGGGPGAGSLQPEGSLQGGPSVFLFPPKPKDTLMISRTPEVTCVVVDVSHEDPEVKFNWYVDGVEVHNAKTKPREEQYNSTYRVVSVLTVLHQDWLNGKEYKCKVSNKALPAPIEKTISKAKGQPREPQVYTLPPSRDELTKNQVSLTCLVKGFYPSDIAVEWESNGQPENNYKTTPPVLDSDGSFFLYSKLTVDKSRWQQGNVFSCSVMHEALHNHYTQKSLSLSPGGGGGSAESKYGPPCPPCPA
Consider B11, for which the “Rat IR phosphorylation [EC50 nM] mean” value in the experiment with Rat IR is 92.8 nM. Moreover, in the experiment with Pig IR, the “Pig IR phosphorylation [EC 50 nM] mean” value worked out at 28.4 nM. For the same molecule, the “hIR-B-phosphorylation [EC50 nM] mean” value in experiment [1] came out at 47.9 nM. Also, the “hIR-A phosphorylation [EC50 nM] mean” value in experiment [2] came to 300 nM.

B12: scl-Fc fusion protein INS009 (Fc fusion)
chain: SFVNQHLCGSHLVEALELVCGERGFHYTPKTGSYPGGVGIVEQCCTSICSLEQLENYCGGEAEDLQVGQVELGGGPGAGSLQPEGSLQGGPSVFLFPPKPKDTLMISRTPEVTCVVVDVSHEDPEVKFNWYVDGVEVHNAKTKPREEQYNSTYRVVSVLTVLHQDWLNGKEYKCKVSNKALPAPIEKTISKAKGQPREPQVYTLPPSRDELTKNQVSLTCLVKGFYPSDIAVEWESNGQPENNYKTTPPVLDSDGSFFLYSKLTVDKSRWQQGNVFSCSVMHEALHNHYTQKSLSLSPGGGGGSAESKYGPPCPPCPA
As to B12, in the experiment with Rat IR, the “Rat IR phosphorylation [EC50 nM] mean” value came out at 137 nM. Besides, in the experiment with Pig IR, the “Pig IR phosphorylation [EC 50 nM] mean” value was found to be 36.6 nM. In addition, the “hIR-B-phosphorylation [EC50 nM] mean” value in experiment [1] was 94.1 nM. The “hIR-A phosphorylation [EC50 nM] mean” value in experiment [2] turned out to be 332 nM.
